Experimental data: patent EP4803546A1 (Beijing Wisdomab Biotechnology Co., Ltd, dated 2026)
Read-outs that look alike come from different tables or passages of the source.

B1: N83G3-h5 humanized single-domain antibody (Fc fusion)
VHH: EVQLVESGGGLVKPGGSLRLSCAASGASLDIYVMGWYRQAPGKGLELVAVITGSGNTNYADSVKGRFTISRDDSKNTLYLQMNSLKTEDTAVYYCAGGRPSRYYRDSGTWADFWGQGTTVTVSS
notes: also called humanized mutant N83G3-h5; humanized molecule N83G3-h5
B2: humanized bispecific antibody 2N83G3-h5×IMCR (bispecific antibody)
chain 1: EVQLVESGGGLVKPGGSLRLSCAASGASLDIYVMGWYRQAPGKGLELVAVITGSGNTNYADSVKGRFTISRDDSKNTLYLQMNSLKTEDTAVYYCAGGRPSRYYRDSGTWADFWGQGTTVTVSSGGGGSGGGGSGGGGSEVQLVESGGGLVKPGGSLRLSCAASGASLDIYVMGWYRQAPGKGLELVAVITGSGNTNYADSVKGRFTISRDDSKNTLYLQMNSLKTEDTAVYYCAGGRPSRYYRDSGTWADFWGQGTTVTVSSASERKSSVECPPCPAPEFEGGPSVFLFPPKPKDTLMISRTPEVTCVVVDVSQEDPEVQFNWYVDGVEVHNAKTKPREEQYNSTYRVVSVLTVLHQDWLNGKEYKCKVSNKALPASIEKTISKAKGQPREPQVCTLPPSQEEMTKNQVSLSCAVKGFYPSDIAVEWESNGQPENNYKTTPPVLDSDGSFFLVSKLTVDKSRWQEGNVFSCSVMHEALHNHYTQKSLSLSPGK
chain 2: not shown
notes: Arm 1 is 2N83G3-h5-G1m3-FcH1n1 (two tandem N83G3-h5 VHH on the hole Fc); Arm 2 is IMCR-scFv-G1m3-FcKn1 (anti-CD3 scFv on the knob Fc); also called 2N83G3-h5×IMCR BsAb
B3: bispecific antibody 2N83G3×IMCR (bispecific antibody)
chain 1: QVQLVESGGGLVQAGGSLRLSCAASGASLDIYVMGWYRQATGKERDLVAVITGSGNTNYADSVKGRFTISRDDAKNTLYLQMSSLKPEDTAVYYCAGGRPSRYYRDSGTWADFWGQGTQVTVSSGGGGSGGGGSGGGGSQVQLVESGGGLVQAGGSLRLSCAASGASLDIYVMGWYRQATGKERDLVAVITGSGNTNYADSVKGRFTISRDDAKNTLYLQMSSLKPEDTAVYYCAGGRPSRYYRDSGTWADFWGQGTQVTVSSASERKSSVECPPCPAPEFEGGPSVFLFPPKPKDTLMISRTPEVTCVVVDVSQEDPEVQFNWYVDGVEVHNAKTKPREEQYNSTYRVVSVLTVLHQDWLNGKEYKCKVSNKALPASIEKTISKAKGQPREPQVCTLPPSQEEMTKNQVSLSCAVKGFYPSDIAVEWESNGQPENNYKTTPPVLDSDGSFFLVSKLTVDKSRWQEGNVFSCSVMHEALHNHYTQKSLSLSPGK
chain 2: not shown
notes: Arm 1 is 2N83G3-G1m3-FcH1n1 (two tandem N83G3 VHH on the hole Fc); Arm 2 is IMCR-ScFv-G1m3-FcKn1 (anti-CD3 scFv on the knob Fc); also called 2N83G3×IMCR BsAb

Key:
[1] = target: T1, MIP-P3-His (disulfide trap single-chain trimer of PRAME antigen peptide … and HLA-A24, His tag) (human); assay: SPR, Biacore T200, as in Section 2.3; MIP-P3-His as analyte
T1 construct: Single polypeptide; His tag added at the C-terminus; also called dtSCT; MIP-P3-His fusion protein

[2] = target: HLA-A24 complex with Similar Peptide Segment 11 (…, KIFBP) on cells (human; human (homo sapiens)); assay: cell-based or functional assay
[3] = target: HLA-A24 complex with Similar Peptide Segment 16 (…, PLD1) on cells (human; human (homo sapiens)); assay: cell-based or functional assay
[4] = target: HLA-A24 complex with Similar Peptide Segment 12 (…, CPVL) on cells (human; human (homo sapiens)); assay: cell-based or functional assay
[5] = target: HLA-A24/PRAME complex: PRAME301-309 (…) presented by HLA-A24 on cells (human; human (homo sapiens)); assay: cell-based or functional assay
[6] = target: HLA-A24 complex with Similar Peptide Segment 8 (…, XCR1) on cells (human; human (homo sapiens)); assay: cell-based or functional assay
[7] = target: T1, MIP-P3-His (disulfide trap single-chain …); assay: SPR, Biacore T200, as in Section 2.3; MIP-P3-His as analyte; remark: listed apart in the source
[8] = target: T2, CD3 (recombinant, as analyte of Table 4) (human (homo sapiens), UniProt P07766 23-126; P04234 22-105); assay: SPR, Biacore T200, as in Section 2.3; CD3 as analyte
T2 construct: That the analyte was a CD3E/CD3D pair is an inference; also called hCD3E; hCD3D
T2 sequence (P07766 23-126, chain 1 of 2): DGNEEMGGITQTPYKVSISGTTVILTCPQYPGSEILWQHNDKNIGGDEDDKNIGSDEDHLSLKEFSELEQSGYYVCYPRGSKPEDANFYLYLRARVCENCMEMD
T2 sequence (P04234 22-105, chain 2 of 2): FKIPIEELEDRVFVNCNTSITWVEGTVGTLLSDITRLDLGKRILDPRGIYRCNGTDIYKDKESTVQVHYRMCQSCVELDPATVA

| Binder | Kd [1] | koff [1] | kon [1] | EC50 Value (nM) mediating the Activation of Jurkat-Dual Cells [2] | EC50 Value (nM) mediating the Activation of Jurkat-Dual Cells [3] | EC50 Value (nM) mediating the Activation of Jurkat-Dual Cells [4] | EC50 Value (nM) mediating the Activation of Jurkat-Dual Cells [5] | EC50 Value (nM) mediating the Activation of Jurkat-Dual Cells [6] | Kd [7] | koff [7] | kon [7] | Kd [8] | koff [8] | kon [8] |
| --- | --- | --- | --- | --- | --- | --- | --- | --- | --- | --- | --- | --- | --- | --- |
| B1 | 0.0747 nM | 5.52e-05 s⁻¹ | 737000 M⁻¹ s⁻¹ |  |  |  |  |  |  |  |  |  |  |  |
| B2 |  |  |  | 1.02 nM | 1.07 nM | 5.32 nM | 0.011 nM | 3.71 nM | 0.065 nM | 8.06e-05 s⁻¹ | 1.24e+06 M⁻¹ s⁻¹ |  |  |  |
| B3 |  |  |  |  |  |  |  |  | 0.0544 nM | 7.65e-05 s⁻¹ | 1.41e+06 M⁻¹ s⁻¹ | 4.57 nM | 0.000245 s⁻¹ | 53600 M⁻¹ s⁻¹ |
